One molecule from PMC5814829 can be followed below.

What is called Kd is the constant that tells how readily two partners part at equilibrium.

Holding throughout (test): fluorescence anisotropy
(Fluorescence polarisation rises when a labelled molecule tumbles more slowly, as on binding a larger partner.)

One data set has as its target T1, ScPif1p D677T (Saccharomyces cerevisiae, UniProt P07271 237-780, D677T).
T1 sequence: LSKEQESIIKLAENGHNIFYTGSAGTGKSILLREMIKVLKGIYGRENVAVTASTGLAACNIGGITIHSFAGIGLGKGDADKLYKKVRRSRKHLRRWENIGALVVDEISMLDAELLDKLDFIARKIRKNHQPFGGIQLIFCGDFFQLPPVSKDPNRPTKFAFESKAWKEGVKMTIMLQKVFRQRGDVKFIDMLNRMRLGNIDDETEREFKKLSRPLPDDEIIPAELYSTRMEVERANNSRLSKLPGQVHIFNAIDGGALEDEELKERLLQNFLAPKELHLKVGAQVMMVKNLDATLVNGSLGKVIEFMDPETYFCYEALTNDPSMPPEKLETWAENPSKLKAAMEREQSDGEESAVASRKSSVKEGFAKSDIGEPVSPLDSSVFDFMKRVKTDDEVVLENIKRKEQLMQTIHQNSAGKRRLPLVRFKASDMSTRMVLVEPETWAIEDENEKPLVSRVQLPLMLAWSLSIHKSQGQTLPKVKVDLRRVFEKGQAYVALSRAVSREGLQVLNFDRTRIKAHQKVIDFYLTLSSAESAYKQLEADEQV

For the next data set, the target named is T2, ScPif1p K595A (Saccharomyces cerevisiae, UniProt P07271 237-780, K595A).
T2 sequence: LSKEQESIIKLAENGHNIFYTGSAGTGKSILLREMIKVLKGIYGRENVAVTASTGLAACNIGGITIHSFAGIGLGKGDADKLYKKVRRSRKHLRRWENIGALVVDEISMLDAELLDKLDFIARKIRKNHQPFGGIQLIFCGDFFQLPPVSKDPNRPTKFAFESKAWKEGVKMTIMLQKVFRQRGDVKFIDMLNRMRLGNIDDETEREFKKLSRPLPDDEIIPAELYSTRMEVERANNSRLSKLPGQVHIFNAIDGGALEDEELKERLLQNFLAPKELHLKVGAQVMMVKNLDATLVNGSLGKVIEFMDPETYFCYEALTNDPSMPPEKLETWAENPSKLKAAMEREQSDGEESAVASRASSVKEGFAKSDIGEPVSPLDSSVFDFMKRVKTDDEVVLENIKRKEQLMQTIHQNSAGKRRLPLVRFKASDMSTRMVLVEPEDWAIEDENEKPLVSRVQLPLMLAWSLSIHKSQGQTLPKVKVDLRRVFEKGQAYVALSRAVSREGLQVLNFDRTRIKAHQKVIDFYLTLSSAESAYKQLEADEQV

For a further data set, the target named is T3, ScPif1p (237-780) (Saccharomyces cerevisiae, UniProt P07271 237-780).
T3 sequence: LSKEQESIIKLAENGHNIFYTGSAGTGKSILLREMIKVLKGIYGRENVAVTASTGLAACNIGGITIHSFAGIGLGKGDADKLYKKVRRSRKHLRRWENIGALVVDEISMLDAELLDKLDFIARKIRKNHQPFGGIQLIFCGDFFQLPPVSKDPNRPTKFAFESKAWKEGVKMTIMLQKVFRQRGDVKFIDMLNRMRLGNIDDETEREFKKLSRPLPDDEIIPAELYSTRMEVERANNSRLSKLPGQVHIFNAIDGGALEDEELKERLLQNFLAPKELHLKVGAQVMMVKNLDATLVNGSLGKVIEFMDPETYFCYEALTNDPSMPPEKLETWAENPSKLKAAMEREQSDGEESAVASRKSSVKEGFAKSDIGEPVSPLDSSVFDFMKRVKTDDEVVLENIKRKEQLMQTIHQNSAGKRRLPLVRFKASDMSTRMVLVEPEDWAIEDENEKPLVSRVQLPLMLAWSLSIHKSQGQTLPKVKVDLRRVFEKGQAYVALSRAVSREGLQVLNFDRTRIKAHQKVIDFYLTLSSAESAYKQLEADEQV

In the case of GTGTGTGTGGTG (ssDNA) [GR12], the results for the Kd with ScPif1p D677T, with ScPif1p K595A and in the data set with ScPif1p (237-780) were 10.5 ± 2.6 nM, 10.2 ± 1.8 nM and 7.8 nM, respectively.
